Data taken from patent publication US20230070731A1, “COMPOSITIONS FOR SMALL MOLECULE CONTROL OF PRECISE BASE EDITING OF TARGET NUCLEIC ACIDS AND METHODS OF USE THEREOF” (THE TRUSTEES OF THE UNIVERSITY OF PENNSYLVANIA, priority 2020, published 2023).

System: BL21(DE3) E. coli
Assay: Bacterial DNA deaminase rifampicin mutagenesis assay (acquired rifampin resistance)
Assay type: cell-based
Details: expression in E. coli
Method: In initial studies, a foreign protein/domain was inserted into an enhanced hyperactive version of AID described in U.S. patent application Ser. No. 16/025,261 (See for example, SEQ ID NO: 20 of the '261 patent application) which is incorporated herein by reference as though set forth in full. This mutant version of the human DNA deaminase AID, involved in antibody maturation was assessed and the loop regions which appeared to be tolerant to insertion of control elements (e.g., Green Fluorescent Protein GFP fragments) were identified as described hereinbelow. Several candidate locations for insertion were identified. We used an E. coli-based rifampin mutagenesis assay to evaluate activity (See Kohli et al., J Biol Chem. (2009) 284:pages 22898-904). In this assay we measure the activity level of a mutator by measuring how many E. coli can be turned resistant to the antibiotic rifampin when the enzyme is turned on.
The mutation frequency of various DNA deaminases, including insertion constructs, were determined using a modified version of previously reported rifampin mutagenesis assay (Kohli, JBC 2009). […] The mutation frequencies were then calculated by the ratio of rifampicin resistant colonies to total population. […]

B1: AID*: hyperactive AID variant (K10E, F42E, T82I, D118A, R119G, K120R, A121R, H130A, R131E, F141Y, F145E, E156G) with N-terminal MBP tag (protein, UniProt Q9GZX7 1-198, looked up, variant K10E F42E T82I D118A R119G K120R A121R H130A R131E F141Y F145E E156G)
Single-stranded DNA cytosine …: MDSLLMNRREFLYQFKNVRWAKGRRETYLCYVVKRRDSATSESLDFGYLRNKNGCHVELLFLRYISDWDLDPGRCYRVTWFISWSPCYDCARHVADFLRGNPNLSLRIFTARLYFCEAGRREPEGLRRLAEAGVQIAIMTYKDYEYCWNTFVENHGRTFKAWEGLHENSVRLSRQLRRILLPLYEVDDLRDAFRTLGL
modifications: N-terminal MBP tag
- Rif^R increase relative to catalytically inactive mutant AID(E58A): 265 fold
